Source: publication PMC11444262, “Direct targeting of host microtubule and actin cytoskeletons by a chlamydial pathogenic effector protein” (Journal of Cell Science, 2024)

Molecular target: Taxol-stabilized microtubules (UniProt P02550 1-451)
Experiment: co-sedimentation; equilibrium binding of 100 nM GST–CPn0572^595-755 with increasing amounts of Taxol-stabilized MTs; apparent Kd
Conditions: both partners purified

Taxol-stabilized microtubules, sequence (P02550 whole entry, chain 1 of 2): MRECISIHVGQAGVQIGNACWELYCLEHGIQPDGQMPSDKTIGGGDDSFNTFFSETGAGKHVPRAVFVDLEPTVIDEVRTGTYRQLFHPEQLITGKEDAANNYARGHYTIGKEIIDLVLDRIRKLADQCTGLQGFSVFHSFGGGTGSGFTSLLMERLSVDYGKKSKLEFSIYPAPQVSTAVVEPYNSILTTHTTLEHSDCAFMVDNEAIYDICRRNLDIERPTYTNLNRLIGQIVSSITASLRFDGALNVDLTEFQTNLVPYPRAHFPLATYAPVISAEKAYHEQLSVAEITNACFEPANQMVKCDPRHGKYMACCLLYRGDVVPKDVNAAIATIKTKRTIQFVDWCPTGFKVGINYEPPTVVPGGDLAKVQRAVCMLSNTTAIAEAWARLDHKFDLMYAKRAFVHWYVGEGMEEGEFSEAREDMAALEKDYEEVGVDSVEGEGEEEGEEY
Taxol-stabilized microtubules, sequence (P02554 whole entry, chain 2 of 2, further chain): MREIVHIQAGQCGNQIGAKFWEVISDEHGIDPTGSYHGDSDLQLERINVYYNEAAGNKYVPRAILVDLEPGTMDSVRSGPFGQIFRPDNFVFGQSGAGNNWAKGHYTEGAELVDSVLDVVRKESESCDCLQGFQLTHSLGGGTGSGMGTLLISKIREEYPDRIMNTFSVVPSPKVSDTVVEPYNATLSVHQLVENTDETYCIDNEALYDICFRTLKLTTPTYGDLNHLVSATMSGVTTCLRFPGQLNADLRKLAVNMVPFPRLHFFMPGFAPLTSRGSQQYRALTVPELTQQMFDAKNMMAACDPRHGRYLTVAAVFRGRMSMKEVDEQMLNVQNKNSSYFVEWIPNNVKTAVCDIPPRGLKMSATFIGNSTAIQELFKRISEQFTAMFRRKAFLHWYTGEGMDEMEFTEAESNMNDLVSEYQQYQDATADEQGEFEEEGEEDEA

B1: GST–CPn0572^595-755 (domain or fragment, Chlamydia pneumoniae (Cpn GiD), UniProt Q9Z7Y1 595-755, looked up)
chain: VATTITPQARTASTSTTSIGTGTESTSTTSTGTGTGSVSTQSTGVGTPTTTTRSTGTSATTTTSSASTQTPQAPLPSGTRHVATISLVRNAAGRSIVLQQGGRSQSFPIPPSGTGTQNMGAQLWAAASQVASTLGQVVNQAATAGSQPSSRRSSPTSPRRK
notes: Cloned into a modified pGEX-5X-1 in which the factor Xa site is replaced by a TEV protease site; source: E. coli Rosetta (DE3), purified (glutathione agarose beads)
- Kd: 70 nM
